Test results: patent publication US20100311605A1, “SENSING PLATFORM” (NATIONAL CHIAO TUNG UNIVERSITY, priority 2009, published 2010)

T1: MMP-2 (Homo sapiens, UniProt P08253)
T1 construct: purchased Sigma-Aldrich, USA
T1 sequence (P08253 110-660): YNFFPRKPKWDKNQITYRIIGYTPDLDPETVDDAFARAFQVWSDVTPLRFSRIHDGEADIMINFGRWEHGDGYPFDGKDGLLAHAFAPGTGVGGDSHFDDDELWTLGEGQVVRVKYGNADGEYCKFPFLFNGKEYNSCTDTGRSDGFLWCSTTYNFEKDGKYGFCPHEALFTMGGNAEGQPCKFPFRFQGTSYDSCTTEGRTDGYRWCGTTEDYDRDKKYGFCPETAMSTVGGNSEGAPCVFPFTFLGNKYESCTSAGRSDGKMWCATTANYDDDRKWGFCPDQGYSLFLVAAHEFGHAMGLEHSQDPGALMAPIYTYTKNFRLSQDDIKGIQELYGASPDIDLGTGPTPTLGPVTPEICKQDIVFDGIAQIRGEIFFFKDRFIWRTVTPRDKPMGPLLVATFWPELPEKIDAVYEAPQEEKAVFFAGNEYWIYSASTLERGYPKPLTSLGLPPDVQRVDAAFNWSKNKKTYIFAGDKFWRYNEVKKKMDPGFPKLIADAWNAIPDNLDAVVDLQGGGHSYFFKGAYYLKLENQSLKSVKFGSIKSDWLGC

B1: trypsin: proteinase detected by the sensing platform (protein, UniProt P00760 24-246, looked up)
Serine protease 1: IVGGYTCGANTVPYQVSLNSGYHFCGGSLINSQWVVSAAHCYKSGIQVRLGEDNINVVEGNEQFISASKSIVHPSYNSNTLNNDIMLIKLKSAASLNSRVASISLPTSCASAGTQCLISGWGNTKSSGTSYPDVLKCLKAPILSDSSCKSAYPGQITSNMFCAGYLEGGKDSCQGDSGGPVVCSGKLQGIVSWGSGCAQKNKPGVYTKVCNYVSWIKQTIASN

Experiments:
[1] = molecular target: T1, MMP-2; settings: read-out: enzyme inhibition constant (Ki); cited from earlier work
[2] = molecular target: T1, MMP-2; assay: Test of MMP-2 suppressor activity and specificity with AuNPs/MCH-gelatin sensing platform; type: biochemical; settings: 37° C., 30 minutes; for suppression of MMP-2 activity (ratios A625/A525 versus control group): suppressor solution 10 mM, 0.5 μL MMP-2 (100 ng/μL), FIG. 6
Protocol: Buffer solutions containing different concentrations of ONO-4817 were added respectively into the solution of AuNPs/MCH-gelatin in a cuvette, and the concentrations of the solutions of AuNPs/MCH-gelatin were adjusted to give an OD525=1.
(§1) Then, a solution of a highly concentrated proteinase suppressor ONO-4817 or A1AT (10 mM) was added to give a mixture. The mixture was placed in a water bath at 37° C. for 30 minutes to allow the reaction. A change in wavelength was measured by a spectrophotometer, and the ratios (A625/A525) of the values measured at wavelengths of 625 nm and 525 nm were calculated.

[3] = test system: trypsin; assay: Specificity test of proteinase suppressors with AuNPs/MCH-gelatin sensing platform, trypsin; type: biochemical; settings: suppressor solution 10 mM; 0.5 μL trypsin (100 ng/μL); 37° C., 30 minutes; FIG. 6
Protocol: as §1

[4] = test system: AuNPs/MCH-gelatin; assay: Activity test of proteinase (trypsin) on AuNPs/MCH-gelatin; type: biochemical; settings: 37° C., 10 minutes
Text: Different concentrations of trypsin were used for detection.
Ratios (A625/A525) of the measured values at wavelengths of 625 nm and 525 nm are used as a basis for detection, so as to correct the error of waveform overlapping caused by changes to the sizes of the AuNPs. The ratios (A625/A525) of the groups are in the following: 0.2127 for A, 0.2131 for B, 0.2134 for C, 0.2554 for D, 0.4236 for E, 0.5674 for F, 0.6114 for G and 0.6484 for H. The ratios and the trypsin concentrations are shown in FIG. 3I, wherein when the trypsin concentrations are from 1.25×10^−1 U to 1.25×10^2 U, the wavelength changes and the trypsin concentrations are positively associated.

Row | Molecule | Ki [1] | suppression of MMP-2 activity (waveform change, A625/A525) ([2]; different concentrations of ONO-4817 (0.0125 to 512 nM), 0.5 μL MMP-2 (100 ng/μL) in 200 μL AuNPs/MCH-gelatin, FIG. 5) | suppression of MMP-2 activity (ratios A625/A525 versus control group) [2] | suppression of trypsin activity (ratios A625/A525 versus control group) [3] | ratio A625/A525 ([4]; group B, 1.25×10^−3 U of trypsin) | ratio A625/A525 ([4]; group C, 1.25×10^−2 U of trypsin) | ratio A625/A525 ([4]; group D, 1.25×10^−1 U of trypsin) | ratio A625/A525 ([4]; group E, 1.25×10^0 U of trypsin) | ratio A625/A525 ([4]; group F, 1.25×10^1 U of trypsin) | ratio A625/A525 ([4]; group G, 1.25×10^2 U of trypsin) | ratio A625/A525 ([4]; group H, 1.25×10^3 U of trypsin)
1 | CCOCOC[C@H](C[C@H](C)C(=O)NO)NC(=O)c1ccc(Oc2ccccc2)cc1 [ONO-4817] | 0.72 nM | can suppress the activity of MMP-2 | can suppress the activity of MMP-2 | significantly increase | – | – | – | – | – | – | –
2 | A1AT: trypsin suppressor; cannot suppress the activity of MMPs | – | – | not suppressed | can effectively suppress the activity of trypsin | – | – | – | – | – | – | –
3 | B1 | – | – | – | – | 0.2131 | 0.2134 | 0.2554 | 0.4236 | 0.5674 | 0.6114 | 0.6484
